Data reported in patent US8962271B2, “Fructosyl peptidyl oxidase” (Roche Diagnostics Operations, Inc., priority 2009, dated 2015).
Like-named read-outs stand apart in the source and are kept apart here.

Experiments:
[1] = tested on: fructosyl peptidyl oxidase FPOX-C (Coniochaeta sp. NISL 9330; GenBank: BAD00186.1); details: cited from earlier work
[2] = tested on: fructosyl peptidyl oxidase FPOX-E (Eupenicillum terrenum ATCC 18547; GenBank: BAD00185.1); details: cited from earlier work
[3] = tested on: CC(C)[C@H](NCC(=O)[C@@H](O)[C@H](O)[C@H](O)CO)C(=O)N[C@@H](Cc1cnc[nH]1)C(=O)O; assay: purified protein, by the assay type; details: other: substrate FVH; apparent Km; 4A.A/TODB/POD
Experimental: (§4) Escherichia coli BL21 (DE3) transformed with pEPN (pET28a-PnFPOX) was grown aerobically at 37° C. in LB medium (7 L) containing 50 μg kanamycin ml^−1. After reaching an A660 nm value of 1.4, the cells were induced with 0.3 mM IPTG, and the incubation was continued at 25° C. until reaching an A660 nm value of 3.0. The cells were harvested by centrifugation and a quarter of harvested cells (approx. 10.5 g) were resuspended in 10 mM PPB, pH 7.0, and lysed by 2 passages through a French press (1,000 kg cm^−2). The lysate was centrifuged at 10,000 g at 4° C. for 20 min, and the supernatant was centrifuged at 40,000 rpm at 4° C. for 90 min. The supernatant was then dialyzed against 10 mM PPB, pH 8.0, containing 25 μM FAD.
(§5) Ammonium sulfate was added to the dialyzed supernatant to 35% saturation and then the precipitate formed was pelleted by centrifugation at 15,000 g for 20 min. The resultant precipitate was dissolved in 10 mM PPB, pH 8.0, containing 25 μM FAD and 1% mannose and dialyzed at 4° C. against the same buffer, and subsequently dialyzed against 10 mM PPB, pH 8.0, containing 25 μM FAD. The dialyzed enzyme solution was applied to a RESOURCE Q column (GE Healthcare) equilibrated with 10 mM PPB, pH 8.0. […] The active flow-through fractions were collected and dialyzed against 10 mM PPB, pH 7.0.
(§6) The dialyzed enzyme solution was applied to a HiLoad 16/60 Superdex 75 pg column (GE Healthcare) equilibrated with 10 mM PPB, pH 7.0. Gel filtration chromatography was carried out with the same buffer. The active fractions were collected, and the purified enzyme solution was dialyzed against 10 mM PPB, pH 7.0 containing 100 μM FAD, and stored at 4° C. The purity of the purified enzyme was confirmed by SDS-PAGE, and the protein concentration was measured using a DC Protein Assay Kit (Bio-Rad, CA, USA).

[4] = tested on: CC(C)[C@H](NCC(=O)[C@@H](O)[C@H](O)[C@H](O)CO)C(=O)O; assay: purified protein, by the assay type; details: other: substrate FV; apparent Km; 4A.A/TODB/POD
Experimental: as §4, §5, §6

[5] = Oxidase activity, 4AA/TODB/POD system, substrate FV; format: biochemical
Experimental: (§1) The water-soluble fraction was examined for the oxidase activity using a POD/TODB/4A.A. method with three substrates: fructosyl valine (FV), fructosyl lysine (FK), and fructosyl valyl histidine (FVH).
(§2) The oxidase activity was assayed using 4A.A/TODB/POD with varying concentrations of substrates, FV, FK and FVH. The absorbance at 546 nm was monitored. Typical Michaelis-Menten curves were obtained with FV and FVH, but not with FK. […] A high VmaxKm^−1 value for FV (42.8 U mg^−1 mM^−1) indicates high specificity toward FV of this enzyme. It should be noted that VmaxKm^−1 value for FVH is also considerable (14.7 U mg^−1 mM^−1, 34% of VmaxKm^−1 for FV). This activity toward FVH of PnFPOX will be beneficial in the enzyme-based measurement of HbA1c. For comparison, the oxidase activity of known fructosyl peptidyl oxidases (FPOX-C and FPOX-E) was also included in the table (Hirokawa et al. ibid).
(§3) The oxidase activity of the fructosyl peptidyl oxidases PnFPOX and FPOX-C on a fructosyl hexapeptide (F6P: Fru-Val-His-Leu-Thr-Pro-Glu) was assayed without addition of Proteinase N. The enzyme activity was measured in a 4AA/TODB/POD system as described in Example 2, with the substrate concentration of 1 mM for FV and FVH and 5 mM for F6P.

[6] = Oxidase activity, 4AA/TODB/POD system, substrate FK; format: biochemical; details: water-soluble fraction; POD/TODB/4A.A. method; in words
Experimental: as §1, §2

[7] = Oxidase activity, 4AA/TODB/POD system, substrate FVH; format: biochemical
Experimental: as §1, §2, §3

[8] = Oxidase activity toward fructosyl hexapeptide without Proteinase N, 4AA/TODB/POD system; format: biochemical
Experimental: as §3

[9] = Thermostability: residual activity after heat treatment; format: physicochemical; details: heat-treated at 50° C. for 10 minutes in 10 mM PPB (pH 7.0)
Experimental: Thermostability of PnFPOX was evaluated by incubating the purified enzyme solution in 10 mM PPB (pH 7.0) at various temperatures for 10 minutes and then measuring the residual activity. The activity of PnFPOX was maintained about 75% up to 50° C. […] (Hirokawa et al. ibid).

[10] = substrate concentration 1 mM, 4AA/TODB/POD
[11] = water-soluble fraction, POD/TODB/4A.A. method, in words

In the case of `CC(C)[C@H](NCC(=O)[C@@H](O)[C@H](O)[C@H](O)CO)C(=O)N[C@@H](Cc1cnc[nH]1)C(=O)O` [FVH, fructosyl valyl histidine], the Km ([1]; substrate FVH) is listed as 2810 µM, the Vmax ([1]; substrate FVH) is listed as 23.8 U/mg and the Km ([2]; substrate FVH) is listed as 2760 µM. For the same molecule, the Vmax ([2]; substrate FVH) was 5.43 U/mg.

For “fructosyl peptidyl oxidase PnFPOX from Phaeosphaeria nodorum, SEQ ID NO:1 (recombinant, purified) (Parastagonospora nodorum SN15)”, the Km [3] was 200 µM, the Vmax [3] was 2.97 U/mg and the Km [4] was 640 µM. It also gave a Vmax [4] of 27.6 U/mg.

In the case of `CC(C)[C@H](NCC(=O)[C@@H](O)[C@H](O)[C@H](O)CO)C(=O)O` [FV, fructosyl valine], the Km ([1]; substrate FV) is given as 824 µM, the Vmax ([1]; substrate FV) is given as 66.0 U/mg and the Km ([2]; substrate FV) is given as 318 µM. For the same molecule, the Vmax ([2]; substrate FV) was 20.6 U/mg.

For `N[C@@H](CCCCNCC(=O)[C@@H](O)[C@H](O)[C@H](O)CO)C(=O)O` [FK, fructosyl lysine], the Km ([1]; substrate FK) is listed as 10600 µM, the Vmax ([1]; substrate FK) is listed as 23.4 U/mg and the Vmax ([2]; substrate FK) is listed as 0.42 U/mg.

B1: PnFPOX: fructosyl peptidyl oxidase derived from Phaeosphaeria nodorum, amino acid sequence SEQ ID NO:1, recombinant from E. coli (protein, listed as Phaeosphaeria nodorum)
chain: MAPSRANTSVIVVGGGGTIGSSTALHLVRSGYTPSNVTVLDAYPIPSSQSAGNDLNKIMGVSLRNPVDLQLALEARQMWNEDELFKKFFHNTGRLDCAHGEKDIADLKSGYQALVDAGLDATNEWLDSEDEILKRMPLLSRDQIKGWKAIFSKDGGWLAAAKAINAVGEYLRDQGVRFGFYGAGSFKAPLLAEGVCIGVETVDGTRYYADKVVLAAGAWSPTLVELHEQCVSKAWVYGHIQLTPEEAARYKNSPVVYNGDVGFFFEPNEHGVIKVCDEFPGFTRFKMHQPFGAKAPKRISVPRSHAKHPTDTIPDASDVSIRRAIATFMPQFKNKKMFNQAMCWCTDTADAALLICEHPEWKNFVLATGDSGHSFKLLPNIGKHVVELLEGTLADDLAHAWRWRPGSGDALKSRRSAPAKDLADMPGWNHDKPRANL
For B1, the “FV (U/mg) oxidase activity” value [5, 10] was 1.3 U/mg, the “oxidizing activity to FV” value [5, 11] was “showed oxidizing activity” and the “oxidizing activity to FK” value [6] was “showed oxidizing activity”. For the same molecule, the “VmaxKm^−1 for FVH as % of VmaxKm^−1 for FV” value [7] was 34%, the “FVH (U/mg) oxidase activity” value [7, 10] was 0.11 U/mg and the “oxidizing activity to FVH” value [7, 11] was “showed oxidizing activity”. The “capability of oxidizing fructosyl hexapeptide” value ([8]; in words) was “capable of oxidizing fructosyl hexapeptide”, the “F6P (U/mg) oxidase activity” value ([8]; substrate concentration 5 mM, without Proteinase N) was 1.3 × 10^−3 U/mg and the residual activity [9] was “about 75%”.
